Assay: label from the status in PepcDB records
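Further: failed if final PepcDB status was selected cloned or expressed and not failed if soluble or beyond.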

Row | Sequence | protein production
1 | MRVTGVIIRIIRQFFRDKRSLAMMFGAPMLLLWLLSLVFTQKDYVPHIAVVDMPVQVVKVMKNQEASIYEYSKEKAMSELENQKVDAVIRLENGKMNIVLEGSDSSKNRAVLQILQKSTEKNDVSIMKPEVNYLHGSKDFTMFDGLGPVLIGFFTFFFVFILSGVSFVRERLSGTLERLLSTPIKRWEIVVGYIIGFGIFAFIQSIIIVSFSVYILDLYVAGSIWLTLLITCMLSLTALTLGTFLSAYANNEFQMIQFIPLVIVPQIFFSGLFPIESMNKWLQMLGKLFPLTYGADAMRQVMIRNQGFTEIALDLTVLLFFSVLFAVGNVFALKKHRKI | failed
2 | MDQNAILLALGGIGAAALLSQWLAWRLRLPAILFLLLSGIVAGPLLGWLDPDEMFGPLLFPLVSLAVALILFEGSLTLHFSEWKEIGTVVHRMVTIGALSTWGVIALAAHYLLDFSWEMALLFGTLTLVTGPTVIVPMLRVVRPKAAVANILRWEGIVIDPIGALLAVVVYSFIISSGEGDGWLHSLQTFGGVILCGSLFGILGGWALGIVLRRHWLPDYLHNLATLAAVLGVFIASNRVMHESGLLAVTLMGMGLANMKGVDVRQILHFKENLSVLLISGLFILLAARLDINALLGLGPAALLVLLLIQFVARPLNVALSTWGSPLSWRERALLSWIAPRGIVAAAVSAIFAIRLSAEGHAQAALLVPLTFLVIIGTVVLQSATARPLARLLKVAEPSPSGYLIVGANPVGRAIGKALKSLGSRVLLTDSSWENIRAARMDNLPTYFGNPTSQHAEAHLDLVGIGHLLGVSPAGELNTLAAMRFRHEFGHRQLFGLPTSQEAKRTDKHRSSDEHRGRPLGQRPLTYAQFASLLSRGAEIRTTLLTDTFGWNDYQALHGESAILLFARDPNGRMHVATPQSTLAPGTGWTLLSLIDAEPSVSKSQATEIAD | failed
3 | HLGIPPSGALDQYALRAANLLVGNAPTAAVLECALLGPQLEFQRDALVAVCGARMTPRLEGAEMPLDTSFRVRAGQVLGFDFIRAGARGYLAIDGGIAVPEVLGSRSTYGLGAIGGLQGRRLAEGDLLPLGPASPSAVEGLALPRSLQVEVGGEVSLRVVPGLYVHRLTPDAVERFFAETWTVGSEADRTGYRFKGGTALRFEPREQPFGAGSDPSNIVDACYPIGSIQVPGGLEPIVLHRDAVSGGGYATLGTVISPDLNRLAQMQPNQKGRFVAVSLEEGLEARRRYNWQ | failed
4 | MENLKNIQPREDFNWEEFEAGGVHAAVSRQEQEAAYDKTLNTIKEKEVVMGRVTAINKREVVINVGYKSEGVVPATEFRYNPELKVGDEVEVYIENQEDKKGQLVLSHRKARAARSWERVNEALEKDEIVKGYVKCRTKGGMIVDVFGIEAFLPGSQIDVRPIRDYDAFVEKTMEFKIVKINQEYKNVVVSHKVLIEAELEQQKKEIIGKLEKGQVLEGIVKNITSYGVFIDLGGVDGLIHITDLSWGRVAHPEEIVQLDQKINVVILDFDEDRKRIALGLKQLMPHPWDALDSELKVGDKVKGKVVVMADYGAFVEIAQGVEGLIHVSEMSWTQHLRSAQDFLHVGDEVEAVILTLDREERKMSLGLKQLKPDPWADIETRFPVGSRHHARVRNFTNFGVFVEIEEGVDGLIHISDLSWTKKIKHPSEFTEVGADIEVQVIEIDKENRRLSLGHKQLEENPWDVFETVFTVGSIHEGTVIEVMDKGAVVSLPYGVEGFATPKHMVKEDGSQAVLEEKLPFKVIEFNKDAKRIIVSHSRVFEDEQKMAQREANAERKAEAKAAQKEAAAEAANPAQAVEKATLGDLGELAALKEKLSEN | failed
5 | MSLRSEQEMMDIFLDFALNDERIRLVTLEGSRTNRNIPPDNFQDYDISYFVTDVESFKENDQWLEIFGKRIMMQKPEDMELFPPELGNWFSYIILFEDGNKLDLTLIPIREAEDYFANNDGLVKVLLDKDSFINYKVTPNDRQYWIKRPTAREFDDCCNEFWMVSTYVVKGLARNEILFAIDHLNEIVRPNLLRMMAWHIASQKGYSFSMGKNYKFMKRYLSNKEWEELMSTYSVNGYQEMWKSLFTCYALFRKYSKAVSEGLAYKYPDYDEGITKYTEGIYCSVKEGHHHHHH | not failed
6 | MIERGRLGAASRRRATSAHGPIQTTVFMSSGIVFHAVAALAYAVLAGSLWRRLQGRGSVDQASKLTRTGLLGALALHGVALQQAMLGTQHLYIGWALALSAAVWLGLVVFWLESLLIRIDGLQLLLLPAAAIVTAIAALFPQAQLVPHANNPWLRAHLLIALAAYGLITIAALHAMLIALLDRHLHRPLDAPAERSIVGRVLDAQPPLLVQERLLFRVIWIGFVVLTLAVGSGSVASITLTGKFLPFDHKTIFTLLSWATFGVLLLGRHIRGWRGRVALRWTLTGFAFLILAYTGSRFVLEVILHRG | failed
7 | MTRTPLTLEQLNALSDDAFTEHFAGVLEHSPHYARRAAAGRPFADVEEVAAAFARAVAADEPGAQVQLIRAHPDLAGKAALAGELTAESASEQTSAGLDRLSPEEYAEFQRLNAAYHERFGLPYVVCVRENTKDTIFEGARRRLTHTQEEEQAAALHEIGRIARLRILDLVQEGRQEKRMDGRLIRIPLEHHHHHH | failed
8 | MPEEVSNEIEAPSLHTPEEVLLHYWGYPSFRPVQLPIIESVLAGKDTLGLLPTGGGKSITFQVPGLLLPGLTLVVTPLIALMRDQIMGLRQKGIKATAVHAGMTREQIITTLDNCIYGRYKFLYVSPERLGSELFLSRLHALRVSLLVVDECHCISQWGYDFRPAYLSIADIREALPDVPVLALTATATRPVIDDIQRILRFPEPNVLRKSFFRPNLSYSIRRTADKETMLLHILSRVDGSAVVYCRNRDKARDLARFLGENGFSADFYHAGLNHVTREIRQKSWMEGETRIIVCTNAFGMGIDKPDVRLVLHMEMPSSPEEYFQEAGRAGRDGERAYAVLLAGEDDIFNLKRRVSNEFPPREYIATVYNRICNYLQIGEGEGFERSFDFDIDAFCRNFRMFPTQVLAAIRILDVAGIWEYREEKTRSRLTIQVQRDELYRMRSEQASDSVLTALMRTYDGLFADYVSIVESELAEKTGLSVDQVYQQLLLLNKAGIVNYIPQKNLPRIYFLTRREDAELLQIPRAAYEDRRDRLKARIDQSLRYIEEENTCRSRMLLAYFGEEQSHNCKLCDVCLRRKDGELHHHEVDDLLHFLEQRLTEETPYVLIADICRELHHHPDVVLKAIRFVMKESWQYSTDGDTVFLTHKLPGGLNL | failed
9 | NDALRVMAGDLQRSEEKFRSMTDAAHDAVFMLNNEGKIVYRNTAAETLFGFSREEYGDQLFWELISPEFADFNIHDVCEMMPDEALPDFNSETRVRQIEGLRKDGSLVPIEISRGCVHIESVHHTVVIARDIT | failed
10 | MKHPDPAQKVEGTTATTPTKVAAFFDLDKTIIAMSSTYAYGREFMNSGLISPVEALQLSLAQATYMFAGHTSEQMDNTRDQLTAMIRGWEVQQVRSIAEETMHSVVTPTIYAEARELIEHHQELGHDVIIISASVKELVEPIARELGVHKTVTTVLEAHDGMYTGEVLFYCKGDAKAQSILDLAEANNYDLSLSFAYSDSFTDLPMLEAVGNPAAVNPDRALKKIALEQGWKILSFKNPEPLFQMPSTRDVGIGTGVVAGIAAVTAGSIWWMKRARRGSA | failed
11 | MALRSLVLFAALALVGCSSSPTADLVLTNGTVATLDDDHEQVEALAAADDTLLAVGSADAIDAYVGGDTRVIDLQGRLAVPGFIEGHGHYMGMGQAQMQLDLLGTSSWGRVVAKVDSSADETASGAWVEGRGWHQEKWTSTPERMVRGFPTNARLNEAAPDTPVYLTHASGHAAIANDAALEAAGIGPNTPDPEGGTIVRDAQERVTGVLLETAAGLVQEALDASRSGMSAADRRARRERQVRLAAEEALANGVTSFQDQGASFETIRLYREMAERGALDIRMYAMVAQGEVTPETQERLAEIRTVGAADQHLTVRAIGEVTVDGALGSRSAWMLEPYDDAPNDTGINVTPMERVREIAEIGLDEDYQIAVHAIGDRANRETLDLYASLFEAADGRGAERRWRVEHAQHLHPDDISRFADLGVMASMQAIHACSDAPYNYQRLGAQRVDQGAYLWNTLWADGAVVGNGTDVPVEKIDPLASLHCTATRQVPGTDTTFTPDETLTRRRALQSYTINNARMAFEEDVKGTLTPGKLADVTVLSENILTGPPERLREATVDYTIVGGEVAYANE | failed
12 | MQSSAVFPLSPLIPLLQQRRLSLRHHPITAASSSDLNMSPNKPTPYVLSAIVPIVGGVALASISEVSFNWAGFSSAMASNLTNQSPNNYIFEF | failed
13 | MNVVRSSAYTGVATLAKLLAALVVVKLVAVYAGPQGVGRLGQFLNLMSVLAVLAGGGISAGIVKYVAQYRDDAPALARLLSAALWYAFCAACAMALLAMAFSGAIAERLLGDASYRPLMCVLAIAQLGIALLNYMLAVINGFMDVRRLAFVQVSGAVLSVALVAWLSGRAQLHGALLALVLSQVLWLLAAVPALRRSSYFQPAMWRMRFDAEMTRQLAAFSVMTLTSTLVPQLVAILVRDHLALQFGWEQVGYWQAVSRVSDAYLLFFTTAINVYYLPKLASLRGAVALGQELRGAYRYVMPAVIVMALGVYVCRDWVTLLLFDAQFAAAAPLYGPQLLGDVVKIAAFVLSYVMLAKAMTRLLVISECIFAASYLALVYLFTAQFGLIGAMYAFAANYVLYLLFNIVVVRRYLRRTA | failed
14 | STGESSSVSERGSLKQQLREYIRWEEAARNLLGLIEAKENRNHQPPQPKALGNQQPSWDSEDSSNFKD | failed
15 | MKRRSVLLSGVALSGTALANDSIFFSPLKYLGAEQQRSIDASRSLLDNLIPPSLPQYDNLAGKLARRAVLTSKKLVYVWTENFGNVKGVPMARSVPLGELPNVDWLLKTAGVIVELIVNFVASLPASAAAQFERIATGLSGDLEAARQVHEALLEEAKNDPAAAGSLLLRFTELQTRVIAILTRVGLLVDDILKSASNLVTQRGQGDGLNRFRAVFGTLRLPEVADSFRDDEAFAYWRVAGPNPLLIRRVDALPANFPLGEEQFRRVMGADDSLLEAAASRRLYLLDYAELGKLAPSGAVDKLLTGTGFAYAPIALFALGKDRARLLPVAIQCGQDPATHPMFVRPAESESDLYWGWQMAKTVVQVAEENYHEMFVHLAQTHLVSEAFCLATQRTLAPSHPLHVLLAPHFEGTLFINEGAARILLPSAGFIDVMFAAPIQDTQATAGGNRLGFDFYRGMLPESLKARNVDDPLALPDYPYRDDGLLVWNAIRQWAADYVAVYYASDGDVTADVELAAWVGEVIGSGKVAGFRPITGRSQLVEVLTMVIFTASAQHAAVNFPQPSMMTYAPAICAMSAAPAPDSPSGKSEADWLKMMPPTLVALEKVNIYHLLGSVYHGRLGDYRQTGFPYAPVFSDRRVTASGGPLERFQARLKEVEATIRTRNQARRRPYEYLLPSRIPASTNI | failed
16 | MLSTGLDELVYRSNLIGSDRAVCNWGGGNTSMKTVEKDFRGREIAVMWVKGSGSDLATMGAKNFTGLNLEDIRPLIEREEMSDEEMVEYLGHCMIDRNHPRPSIETLLHAFLPFKHVDHTHPDAIISICCADNGKEIAKNLFGDRFVWVPYVRPGFSLSKLIAEGVQKNPHAELVLMEKHGLVVWGETAKESYDRTISVINEAEAYIRSRINESVIFGGGKLEHHHHHH | failed
17 | MKMLNRLDLGVPCLRAGFAGEQAFFLAMDGRLHVQQGDQRRVVALHDGDVLSACAAPGQADAAAWLLSAGEDGRVMRAGAGEPDCVASVPNKWVTALAVAADGALAYASGRTVWLAGGGGEAAALPQERPVQALRFSHGGRWLAVAGYDGLALYDRQAGGEPQRLDWKGMPTRVAFSPDDRFVLVATRDAVLHGWRLDTLRHFRMVGYPRAVGSWSWLAGGQWLATDGSAGAVLWPFEGEEGPIGSTPLALGERPDGEVSAVACHPARPWVAVGYADGLMVLESTDGALRRILGQAGRDRVACLAWDRAGARLAYGTPSGACGVIQADTGEEGLEHHHHHH | failed
18 | MSVKVSEYMTKKVVTVSKDNTVKDVIKLLKETGHNSFPVVENGKLIGIVSVHDIVGKDDNEKVENVMTKRKDMVVTTPDANIMDVGRIMFRTGFSKLPVVDEENNLVGIISNMDVIRSQIEKTTPKKLENIIKTYKSLGYNLRVEKEEVDVNKLRPTQNKIHADELVGRMYELKKGLAEPIIAIKTKRGDYYILVDGHHRAVAAYKMGVPKLDAYVIYLDTDKKLGIEKTAEIMNLKSLEDVKIVDSDDENSVKVIKYNKNGVLG | failed

From a protein production outcome set (Wang et al. 2014)
